In the supplement of paper PMC6757056:
± gives the standard deviation of the averaged measurements.

B1: library; a variant is named by its letters at N, in order (parent)
chain: GCUGUCACCGAGAAACUGUGAAGUAUAUCUUAAACCUGGGCACUUAAAAGAUAUAUGGAGUUAGUAGUGCAACCUGCUCGGUCUGAUGAGUCCNNNNNNGGACGAAACAGC

Experiments:
cyclic di-GMP [1] = variants of: B1; experiment: normalized RNA/DNA level without ligand (relative to sTRSVctl = 100) (log10 (% of sTRSVctl)); HEK293T; ligand: cyclic di-GMP (c-di-GMP-II aptamer); higher = less ribozyme self-cleavage, higher mRNA level; conditions: reporter: mCherry (pCS4076), ligand present: no
Method in brief: (§1)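 Library plasmids encoding reporter-linked ribozyme switches (mCherry, or eGFP for some folinic acid experiments) were transfected into HEK293T at 4 µg per 6-well well. Ligand, when used, was added 1 h before transfection. Total RNA was extracted with EDTA 72 h later, then reverse-transcribed, amplified, barcoded and sequenced. RNA level was RNA reads over DNA reads, divided by a spiked-in non-cleaving control (or the top 25 sequences), ×100, log10; only sequences with ≥100 DNA reads were kept.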

cyclic di-GMP [2] = variants of: B1; experiment: normalized RNA/DNA level with ligand (relative to sTRSVctl = 100) (log10 (% of sTRSVctl)); HEK293T; ligand: cyclic di-GMP (c-di-GMP-II aptamer); ligand concentration (+) RNA-Seq: 1 mM; higher = less ribozyme self-cleavage, higher mRNA level; conditions: reporter: mCherry (pCS4076), ligand present: yes
Method in brief: as §1

Row | Variant | normalized RNA/DNA level without ligand (log10) (cyclic di-GMP [1]) | normalized RNA/DNA level with ligand (log10) (cyclic di-GMP [2])
1 | GACUGC | 1.705 ± 0.012 | 1.88 ± 0.068
2 | GACUGG | 1.68 ± 0.074 | 1.78 ± 0.1
3 | GACUGA | 1.57 ± 0.041 | 1.72 ± 0.12
4 | GACUGU | 1.654 ± 0.0065 | 1.8 ± 0.15
5 | CAGACG | 1.681 ± 0.013 | 1.77 ± 0.088
6 | UAGACA | 1.73 ± 0.058 | 1.85 ± 0.15
7 | UAGACG | 1.7073 ± 0.00046 | 1.87 ± 0.12
8 | AAGAAG | 1.46 ± 0.049 | 1.66 ± 0.093
9 | CACGAC | 1.67 ± 0.053 | 1.83 ± 0.13
10 | CACGAG | 1.63 ± 0.028 | 1.81 ± 0.076
11 | CACGAU | 1.68 ± 0.032 | 1.83 ± 0.089
12 | UACUGG | 1.731 ± 0.015 | 1.85 ± 0.12
13 | UACUGA | 1.66 ± 0.044 | 1.82 ± 0.11
14 | UACUGU | 1.6108 ± 0.00033 | 1.79 ± 0.15
15 | UACUGC | 1.712 ± 0.0056 | 1.83 ± 0.13
16 | GACUCG | 1.78 ± 0.081 | 1.87 ± 0.074
17 | GACUCC | 1.77 ± 0.0029 | 1.89 ± 0.079
18 | GACUCU | 1.704 ± 0.005 | 1.84 ± 0.12
19 | GACUCA | 1.709 ± 0.011 | 1.83 ± 0.11
20 | AAGAGC | 1.59 ± 0.05 | 1.71 ± 0.1
21 | GACGGU | 1.633 ± 0.0071 | 1.8 ± 0.11
22 | GACGGG | 1.76 ± 0.027 | 1.85 ± 0.062
23 | GACGGC | 1.627 ± 0.0064 | 1.72 ± 0.088
24 | UACGUC | 1.69 ± 0.06 | 1.81 ± 0.13

Row | Variant | normalized RNA/DNA level without ligand (log10) (cyclic di-GMP [1]) | normalized RNA/DNA level with ligand (log10) (cyclic di-GMP [2])
25 | UACGUU | 1.684 ± 0.0031 | 1.84 ± 0.093
26 | UACGUA | 1.64 ± 0.018 | 1.8 ± 0.056
27 | UACUAG | 1.697 ± 0.012 | 1.84 ± 0.09
28 | UACUAC | 1.75 ± 0.037 | 1.87 ± 0.08
29 | UACUAA | 1.71 ± 0.014 | 1.81 ± 0.061
30 | CACGUU | 1.729 ± 0.0022 | 1.86 ± 0.088
31 | CACGUC | 1.73 ± 0.075 | 1.87 ± 0.11
32 | CACGUA | 1.504 ± 0.014 | 1.7 ± 0.056
33 | UAGAAG | 1.61 ± 0.027 | 1.8 ± 0.11
34 | UAGAAC | 1.641 ± 0.014 | 1.82 ± 0.13
35 | AAGACU | 1.66 ± 0.019 | 1.84 ± 0.057
36 | CACUGA | 1.65 ± 0.039 | 1.77 ± 0.1
37 | CACUGG | 1.7 ± 0.035 | 1.81 ± 0.13
38 | CACUGC | 1.76 ± 0.024 | 1.87 ± 0.096
39 | CACUAG | 1.759 ± 0.017 | 1.88 ± 0.14
40 | CACUAC | 1.64 ± 0.037 | 1.77 ± 0.11
41 | CACUAU | 1.52 ± 0.067 | 1.72 ± 0.076
42 | AACUCA | 1.65 ± 0.035 | 1.8 ± 0.088
43 | AACUCG | 1.66 ± 0.047 | 1.82 ± 0.085
44 | AACUCU | 1.73 ± 0.06 | 1.88 ± 0.12
45 | GACUAU | 1.645 ± 0.009 | 1.81 ± 0.12
46 | GACUAG | 1.668 ± 0.0042 | 1.79 ± 0.16
47 | GACUAA | 1.55 ± 0.045 | 1.74 ± 0.12
48 | GACUAC | 1.7044 ± 0.00077 | 1.82 ± 0.15

Row | Variant | normalized RNA/DNA level without ligand (log10) (cyclic di-GMP [1]) | normalized RNA/DNA level with ligand (log10) (cyclic di-GMP [2])
49 | UACGCC | 1.77 ± 0.021 | 1.87 ± 0.12
50 | UACGCA | 1.78 ± 0.018 | 1.89 ± 0.067
51 | UACGCG | 1.81 ± 0.04 | 1.9 ± 0.11
52 | CACUCU | 1.6 ± 0.019 | 1.77 ± 0.12
53 | CACUCC | 1.74 ± 0.077 | 1.84 ± 0.091
54 | CACUCG | 1.82 ± 0.042 | 1.87 ± 0.11
55 | CACUCA | 1.39 ± 0.1 | 1.62 ± 0.093
56 | AACGUC | 1.66 ± 0.024 | 1.78 ± 0.11
57 | AACGUA | 1.51 ± 0.024 | 1.73 ± 0.1
58 | AACGUG | 1.55 ± 0.083 | 1.7 ± 0.096
59 | AACGUU | 1.65 ± 0.056 | 1.82 ± 0.16
60 | GACUUC | 1.74 ± 0.038 | 1.91 ± 0.1
61 | GACGCU | 1.71 ± 0.043 | 1.81 ± 0.097
62 | GACGCA | 1.77 ± 0.055 | 1.88 ± 0.085
63 | GACGCG | 1.81 ± 0.055 | 1.88 ± 0.045
64 | GACGCC | 1.75 ± 0.092 | 1.83 ± 0.11
65 | GAGAAU | 1.663 ± 0.011 | 1.76 ± 0.098
66 | GAGAAC | 1.65 ± 0.031 | 1.8 ± 0.09
67 | GAGAAA | 1.6011 ± 0.00083 | 1.72 ± 0.1
68 | AACUUU | 1.737 ± 0.004 | 1.85 ± 0.09
69 | AACUUA | 1.615 ± 0.0013 | 1.79 ± 0.17
70 | AACUUG | 1.66 ± 0.051 | 1.85 ± 0.11
71 | AACUUC | 1.714 ± 0.0074 | 1.82 ± 0.095
72 | UAGAGA | 1.51 ± 0.042 | 1.72 ± 0.089

Row | Variant | normalized RNA/DNA level without ligand (log10) (cyclic di-GMP [1]) | normalized RNA/DNA level with ligand (log10) (cyclic di-GMP [2])
73 | CACGGU | 1.685 ± 0.015 | 1.84 ± 0.064
74 | CACGGG | 1.63 ± 0.04 | 1.8 ± 0.06
75 | CACGGC | 1.747 ± 0.0044 | 1.89 ± 0.11
76 | AACGGG | 1.51 ± 0.084 | 1.68 ± 0.098
77 | AACGGU | 1.52 ± 0.049 | 1.77 ± 0.1
78 | AACGGC | 1.68 ± 0.017 | 1.8 ± 0.071
79 | CACUUU | 1.51 ± 0.057 | 1.7 ± 0.17
80 | CACUUC | 1.71 ± 0.022 | 1.83 ± 0.16
81 | AACUGU | 1.7 ± 0.023 | 1.85 ± 0.1
82 | AACUGC | 1.686 ± 0.0067 | 1.82 ± 0.089
83 | AACUAC | 1.7 ± 0.019 | 1.84 ± 0.12
84 | AACUAG | 1.616 ± 0.0088 | 1.78 ± 0.13
85 | AACUAU | 1.662 ± 0.014 | 1.79 ± 0.11
86 | UACGAG | 1.674 ± 0.0019 | 1.82 ± 0.1
87 | UACGAU | 1.63 ± 0.046 | 1.8 ± 0.15
88 | UACGAC | 1.67 ± 0.017 | 1.82 ± 0.11
89 | CACGCU | 1.722 ± 0.0093 | 1.84 ± 0.12
90 | CACGCG | 1.73 ± 0.028 | 1.83 ± 0.062
91 | CACGCC | 1.81 ± 0.044 | 1.86 ± 0.022
92 | UACGGU | 1.6 ± 0.032 | 1.78 ± 0.098
93 | UACGGC | 1.72 ± 0.033 | 1.84 ± 0.1
94 | UACGGG | 1.62 ± 0.048 | 1.79 ± 0.09
95 | GAGACA | 1.8 ± 0.033 | 1.85 ± 0.088
96 | GAGACG | 1.8 ± 0.045 | 1.83 ± 0.13

Row | Variant | normalized RNA/DNA level without ligand (log10) (cyclic di-GMP [1]) | normalized RNA/DNA level with ligand (log10) (cyclic di-GMP [2])
97 | UACUUA | 1.7 ± 0.055 | 1.84 ± 0.11
98 | UACUUG | 1.734 ± 0.0022 | 1.89 ± 0.063
99 | UACUUC | 1.763 ± 0.0059 | 1.87 ± 0.12
100 | UACUCC | 1.76 ± 0.035 | 1.9 ± 0.14
101 | UACUCG | 1.77 ± 0.06 | 1.88 ± 0.17
102 | UACUCA | 1.77 ± 0.062 | 1.89 ± 0.18
103 | UACUCU | 1.73 ± 0.053 | 1.84 ± 0.07
104 | CAGAGC | 1.67 ± 0.036 | 1.83 ± 0.09
105 | CAGAGA | 1.41 ± 0.064 | 1.64 ± 0.13
106 | GACGUC | 1.671 ± 0.014 | 1.87 ± 0.1
107 | GACGUU | 1.619 ± 0.0079 | 1.81 ± 0.12
108 | GACGUG | 1.71 ± 0.052 | 1.83 ± 0.11
109 | GACGUA | 1.665 ± 0.013 | 1.8 ± 0.085
110 | AACGCG | 1.702 ± 0.008 | 1.82 ± 0.12
111 | AACGCA | 1.67 ± 0.024 | 1.83 ± 0.076
112 | CAGAAC | 1.54 ± 0.07 | 1.75 ± 0.089
113 | CAGAAU | 1.38 ± 0.13 | 1.53 ± 0.12
114 | CAGAAG | 1.68 ± 0.039 | 1.86 ± 0.092
115 | GACGAG | 1.56 ± 0.091 | 1.71 ± 0.071
116 | GACGAC | 1.608 ± 0.0074 | 1.78 ± 0.13
